Data as given in IntAct's records for PubMed 16902405.

Key:
[1] = target: rab1a_human RAB1A (UniProt P62820)
[2] = target: rab6a_human RAB6A (UniProt P20340)
[3] = target: rab5a_human RAB5A (UniProt P20339)
[4] = target: rab6a_human RAB6A (UniProt P20340); remark: listed apart in the source
[5] = target: clh1_human CLTC (UniProt Q00610)
[6] = target: rab5a_human RAB5A (UniProt P20339); remark: listed apart in the source
[7] = target: rab1a_human RAB1A (UniProt P62820); remark: listed apart in the source
[8] = target: rab6a_human RAB6A (UniProt P20340); remark: listed apart in the source
[9] = target: clh1_human CLTC (UniProt Q00610); remark: listed apart in the source
[10] = target: rab1a_human RAB1A (UniProt P62820); remark: listed apart in the source
[11] = target: rab5a_human RAB5A (UniProt P20339); remark: listed apart in the source
[12] = target: rab6a_human RAB6A (UniProt P20340); remark: listed apart in the source
[13] = target: clh1_human CLTC (UniProt Q00610); remark: listed apart in the source
[14] = target: rab6a_human RAB6A (UniProt P20340); remark: listed apart in the source
[15] = target: rab6a_human RAB6A (UniProt P20340); remark: listed apart in the source
[16] = target: rab5a_human RAB5A (UniProt P20339); remark: listed apart in the source
[17] = target: rab1a_human RAB1A (UniProt P62820); remark: listed apart in the source

Inositol polyphosphate 5-phosphatase OCRL (Homo sapiens), Q01968 G664D, sequence (Q01968 whole entry G664D): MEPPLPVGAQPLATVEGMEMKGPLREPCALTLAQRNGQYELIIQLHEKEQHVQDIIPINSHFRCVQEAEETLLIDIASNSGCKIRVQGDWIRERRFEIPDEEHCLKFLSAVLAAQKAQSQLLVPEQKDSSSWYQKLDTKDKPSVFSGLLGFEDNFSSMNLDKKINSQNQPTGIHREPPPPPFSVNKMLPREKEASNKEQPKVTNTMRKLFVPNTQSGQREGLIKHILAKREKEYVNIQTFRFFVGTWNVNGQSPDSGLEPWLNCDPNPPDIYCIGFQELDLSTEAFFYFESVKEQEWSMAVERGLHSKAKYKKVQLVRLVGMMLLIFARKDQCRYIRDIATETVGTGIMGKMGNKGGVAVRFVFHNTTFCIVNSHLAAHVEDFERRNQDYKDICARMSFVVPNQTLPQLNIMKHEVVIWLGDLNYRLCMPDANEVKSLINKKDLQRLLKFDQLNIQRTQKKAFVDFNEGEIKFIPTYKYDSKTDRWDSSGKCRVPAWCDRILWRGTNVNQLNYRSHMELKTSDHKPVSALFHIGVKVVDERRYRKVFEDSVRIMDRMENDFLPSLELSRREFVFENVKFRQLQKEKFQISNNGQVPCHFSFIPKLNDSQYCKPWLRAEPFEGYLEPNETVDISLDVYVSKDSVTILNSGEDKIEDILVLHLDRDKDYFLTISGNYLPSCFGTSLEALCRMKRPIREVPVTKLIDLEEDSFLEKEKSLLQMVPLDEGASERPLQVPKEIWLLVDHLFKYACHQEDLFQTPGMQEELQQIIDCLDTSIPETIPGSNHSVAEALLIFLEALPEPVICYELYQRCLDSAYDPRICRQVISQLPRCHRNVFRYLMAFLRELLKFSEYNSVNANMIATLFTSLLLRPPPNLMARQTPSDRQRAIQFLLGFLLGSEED
clh1_human CLTC, sequence (Q00610 whole entry): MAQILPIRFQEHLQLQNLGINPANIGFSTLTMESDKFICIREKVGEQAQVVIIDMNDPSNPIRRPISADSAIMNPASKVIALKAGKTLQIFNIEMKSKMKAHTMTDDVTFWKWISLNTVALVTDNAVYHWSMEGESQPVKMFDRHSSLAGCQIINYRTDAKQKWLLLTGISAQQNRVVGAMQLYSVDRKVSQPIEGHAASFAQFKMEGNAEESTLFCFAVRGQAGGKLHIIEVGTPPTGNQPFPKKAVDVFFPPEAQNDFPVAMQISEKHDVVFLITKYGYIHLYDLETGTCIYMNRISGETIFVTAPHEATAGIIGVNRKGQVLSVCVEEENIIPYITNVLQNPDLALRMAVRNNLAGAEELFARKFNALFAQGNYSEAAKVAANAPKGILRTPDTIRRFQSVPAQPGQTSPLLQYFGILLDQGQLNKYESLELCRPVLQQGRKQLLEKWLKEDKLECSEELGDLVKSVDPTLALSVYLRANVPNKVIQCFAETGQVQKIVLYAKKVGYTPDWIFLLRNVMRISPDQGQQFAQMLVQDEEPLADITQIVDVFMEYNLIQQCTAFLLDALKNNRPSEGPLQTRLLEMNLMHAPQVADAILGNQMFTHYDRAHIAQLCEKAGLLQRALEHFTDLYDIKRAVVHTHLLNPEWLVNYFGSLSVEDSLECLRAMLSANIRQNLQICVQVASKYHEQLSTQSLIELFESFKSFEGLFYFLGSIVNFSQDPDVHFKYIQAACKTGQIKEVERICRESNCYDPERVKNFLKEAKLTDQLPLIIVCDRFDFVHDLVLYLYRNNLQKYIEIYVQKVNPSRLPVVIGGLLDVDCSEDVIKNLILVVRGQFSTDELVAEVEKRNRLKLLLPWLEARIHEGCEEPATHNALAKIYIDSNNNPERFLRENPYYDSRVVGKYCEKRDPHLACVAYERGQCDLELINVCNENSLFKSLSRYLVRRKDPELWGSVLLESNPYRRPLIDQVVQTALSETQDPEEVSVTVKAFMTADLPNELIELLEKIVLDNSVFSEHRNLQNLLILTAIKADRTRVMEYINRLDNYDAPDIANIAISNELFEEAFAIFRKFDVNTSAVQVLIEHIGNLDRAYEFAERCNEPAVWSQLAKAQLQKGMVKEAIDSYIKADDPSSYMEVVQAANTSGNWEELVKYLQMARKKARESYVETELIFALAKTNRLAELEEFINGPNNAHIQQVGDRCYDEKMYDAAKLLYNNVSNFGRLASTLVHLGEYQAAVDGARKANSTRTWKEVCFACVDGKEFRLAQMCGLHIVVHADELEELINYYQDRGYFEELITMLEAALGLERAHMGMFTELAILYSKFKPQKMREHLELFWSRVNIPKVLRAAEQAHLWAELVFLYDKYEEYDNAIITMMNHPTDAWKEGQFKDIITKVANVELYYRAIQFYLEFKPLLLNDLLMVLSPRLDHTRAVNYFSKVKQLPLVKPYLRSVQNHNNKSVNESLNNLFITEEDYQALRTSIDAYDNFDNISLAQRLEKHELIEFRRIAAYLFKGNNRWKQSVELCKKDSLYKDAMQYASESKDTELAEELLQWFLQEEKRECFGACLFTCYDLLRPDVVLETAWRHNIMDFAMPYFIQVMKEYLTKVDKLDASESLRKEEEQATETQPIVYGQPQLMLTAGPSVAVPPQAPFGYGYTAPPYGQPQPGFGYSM
rab5a_human RAB5A, sequence (P20339 whole entry): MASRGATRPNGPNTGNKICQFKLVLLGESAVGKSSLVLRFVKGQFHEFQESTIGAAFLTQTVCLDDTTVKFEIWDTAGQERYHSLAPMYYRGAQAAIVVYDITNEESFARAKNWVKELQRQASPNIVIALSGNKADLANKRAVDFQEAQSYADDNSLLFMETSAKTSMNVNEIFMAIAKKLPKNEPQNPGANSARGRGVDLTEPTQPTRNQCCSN
Inositol polyphosphate 5-phosphatase OCRL (Homo sapiens), Q01968 S568G, sequence (Q01968 whole entry S568G): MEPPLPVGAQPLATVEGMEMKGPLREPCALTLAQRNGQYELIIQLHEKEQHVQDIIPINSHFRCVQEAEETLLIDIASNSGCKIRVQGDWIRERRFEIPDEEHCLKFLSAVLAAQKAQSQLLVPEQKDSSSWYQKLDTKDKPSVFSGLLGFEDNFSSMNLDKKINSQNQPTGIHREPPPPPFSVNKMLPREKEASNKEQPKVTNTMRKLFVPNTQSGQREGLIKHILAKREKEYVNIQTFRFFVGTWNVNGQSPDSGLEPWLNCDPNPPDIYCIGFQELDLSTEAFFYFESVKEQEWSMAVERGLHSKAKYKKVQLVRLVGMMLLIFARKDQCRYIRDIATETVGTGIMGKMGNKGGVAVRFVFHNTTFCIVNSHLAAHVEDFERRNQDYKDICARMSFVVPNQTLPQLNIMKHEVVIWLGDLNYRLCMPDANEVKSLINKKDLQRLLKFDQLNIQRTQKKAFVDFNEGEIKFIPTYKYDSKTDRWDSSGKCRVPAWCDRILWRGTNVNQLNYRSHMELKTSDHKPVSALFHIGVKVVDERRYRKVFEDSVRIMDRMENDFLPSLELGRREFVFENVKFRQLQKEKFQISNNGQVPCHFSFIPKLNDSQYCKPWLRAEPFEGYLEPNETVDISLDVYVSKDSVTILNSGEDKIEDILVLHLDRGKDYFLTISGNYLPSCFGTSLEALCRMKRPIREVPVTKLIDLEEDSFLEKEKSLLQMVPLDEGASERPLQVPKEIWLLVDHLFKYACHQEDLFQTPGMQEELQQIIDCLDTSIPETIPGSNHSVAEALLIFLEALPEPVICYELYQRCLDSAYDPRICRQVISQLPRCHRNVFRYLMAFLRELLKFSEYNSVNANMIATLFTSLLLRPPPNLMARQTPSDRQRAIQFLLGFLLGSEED
rab1a_human RAB1A, sequence (P62820 whole entry): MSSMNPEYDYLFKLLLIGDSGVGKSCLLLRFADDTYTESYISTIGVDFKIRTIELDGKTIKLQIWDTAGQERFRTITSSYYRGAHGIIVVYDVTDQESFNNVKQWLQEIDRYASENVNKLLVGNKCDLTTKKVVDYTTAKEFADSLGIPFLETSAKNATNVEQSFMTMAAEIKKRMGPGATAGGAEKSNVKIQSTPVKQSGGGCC
Inositol polyphosphate 5-phosphatase OCRL (Homo sapiens), Q01968 S564P, sequence (Q01968 whole entry S564P): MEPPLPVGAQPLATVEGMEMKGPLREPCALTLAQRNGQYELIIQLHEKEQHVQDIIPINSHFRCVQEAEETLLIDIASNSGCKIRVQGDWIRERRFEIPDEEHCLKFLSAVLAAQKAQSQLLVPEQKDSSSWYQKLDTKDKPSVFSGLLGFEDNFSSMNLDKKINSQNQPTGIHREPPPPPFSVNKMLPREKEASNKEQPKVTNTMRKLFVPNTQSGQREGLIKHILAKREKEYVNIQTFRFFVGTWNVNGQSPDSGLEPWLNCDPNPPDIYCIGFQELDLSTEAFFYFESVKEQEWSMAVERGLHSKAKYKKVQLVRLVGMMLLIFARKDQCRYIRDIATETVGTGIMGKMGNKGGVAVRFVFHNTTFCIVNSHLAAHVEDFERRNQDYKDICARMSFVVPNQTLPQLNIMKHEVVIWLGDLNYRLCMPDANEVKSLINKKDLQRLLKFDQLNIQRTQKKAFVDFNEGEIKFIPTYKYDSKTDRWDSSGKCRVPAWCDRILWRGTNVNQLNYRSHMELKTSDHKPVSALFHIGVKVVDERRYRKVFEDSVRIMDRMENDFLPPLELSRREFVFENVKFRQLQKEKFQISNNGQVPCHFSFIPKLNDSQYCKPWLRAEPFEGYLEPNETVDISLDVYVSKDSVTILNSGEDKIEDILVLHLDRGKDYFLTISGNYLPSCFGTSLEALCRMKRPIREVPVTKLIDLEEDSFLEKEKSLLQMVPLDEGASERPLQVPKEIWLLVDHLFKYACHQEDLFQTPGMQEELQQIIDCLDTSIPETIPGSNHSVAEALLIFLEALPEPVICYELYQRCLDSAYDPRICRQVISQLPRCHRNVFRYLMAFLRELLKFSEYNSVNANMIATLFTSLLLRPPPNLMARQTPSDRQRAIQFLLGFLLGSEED
rab6a_human RAB6A, sequence (P20340 whole entry, looked up): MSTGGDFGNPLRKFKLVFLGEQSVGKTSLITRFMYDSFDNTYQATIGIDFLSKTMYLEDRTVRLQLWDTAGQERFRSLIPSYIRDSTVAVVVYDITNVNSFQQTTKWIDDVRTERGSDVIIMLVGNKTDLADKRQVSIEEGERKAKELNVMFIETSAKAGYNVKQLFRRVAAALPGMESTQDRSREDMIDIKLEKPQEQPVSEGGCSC

Q: For “Inositol polyphosphate 5-phosphatase OCRL (Homo sapiens), Q01968 S568G”, which “effect of a mutation on the interaction” value [1] is on record?
A: increasing interaction

Q: And the “effect of a mutation on the interaction” value [2]?
A: decreasing interaction

Q: What about the “effect of a mutation on the interaction” value [3] of the same substance?
A: increasing interaction

Q: Which results are given for “Inositol polyphosphate 5-phosphatase OCRL (Homo sapiens), Q01968 N606K”?
A: effect of a mutation on the interaction [4]: increasing interaction; effect of a mutation on the interaction [5]: increasing interaction

Q: For “Inositol polyphosphate 5-phosphatase OCRL (Homo sapiens), Q01968 G664D”, which “effect of a mutation on the interaction” value [6] is on record?
A: decreasing interaction

Q: And the “effect of a mutation on the interaction” value [7]?
A: disrupting interaction

Q: What about the “effect of a mutation on the interaction” value [8] of the same substance?
A: disrupting interaction

Q: “Inositol polyphosphate 5-phosphatase OCRL (Homo sapiens), Q01968 D555E” was tested. Which “effect of a mutation on the interaction” value [9] did it give?
A: decreasing interaction

Q: What about the “effect of a mutation on the interaction” value [10] of the same substance?
A: disrupting interaction

Q: What about the “effect of a mutation on the interaction” value [11] of the same substance?
A: decreasing interaction

Q: What about the “effect of a mutation on the interaction” value [12] of the same substance?
A: decreasing interaction

Q: What does the source list for “Inositol polyphosphate 5-phosphatase OCRL (Homo sapiens), Q01968 P526H”?
A: effect of a mutation on the interaction [13]: increasing interaction; effect of a mutation on the interaction [14]: increasing interaction

Q: For “Inositol polyphosphate 5-phosphatase OCRL (Homo sapiens), Q01968 S564P”, which “effect of a mutation on the interaction” value [15] is on record?
A: disrupting interaction

Q: And the “effect of a mutation on the interaction” value [16]?
A: decreasing interaction

Q: What about the “effect of a mutation on the interaction” value [17] of the same substance?
A: disrupting interaction
